Experimental data taken from patent US20100255578A1.

Tests used:
[1] = molecular target: H296-H296 (modified fibronectin fragment in which two H-296's are connected); assay: ELISA as in Example 34; H296-H296 coated at 1.563 ug/mL in PBS; HRP-labeled FNH3-8
[2] = molecular target: H-296, a polypeptide comprising a heparin binding domain and a CS-1 domain of fibronectin (Homo sapiens (Human)) (UniProt P02751); assay: ELISA; H-296 coated at 50 ug/mL in 0.2 M phosphate buffer pH 8.0; HRP-labeled FNH3-8, ABTS
[3] = molecular target: H-296, a polypeptide comprising a heparin binding domain and a CS-1 domain of fibronectin (Homo sapiens (Human)) (UniProt P02751); assay: ELISA as in Example 34; H-296 coated at 50 ug/mL in pH 5.6 acetate buffer; HRP-labeled FNH3-8
H296-H296-HT [4] = assay: ELISA; H296-H296-HT coated at 4 ug/mL; HRP-labeled FNH3-8, ABTS; blank subtracted
[5] = molecular target: H296-H296 (modified fibronectin fragment in which two H-296's are connected); assay: ELISA as in Example 34; H296-H296 coated at 6.25 ug/mL in PBS; HRP-labeled FNH3-8
[6] = molecular target: H-296, a polypeptide comprising a heparin binding domain and a CS-1 domain of fibronectin (Homo sapiens (Human)) (UniProt P02751); assay: ELISA as in Example 34; H-296 coated at 100 ug/mL in pH 5.6 acetate buffer; HRP-labeled FNH3-8
[7] = molecular target: H-296, a polypeptide comprising a heparin binding domain and a CS-1 domain of fibronectin (Homo sapiens (Human)) (UniProt P02751); assay: ELISA; H-296 coated at 50 ug/mL in 0.2 M acetate buffer pH 5.6; HRP-labeled FNH3-8, ABTS
H296-H271 [8] = assay: ELISA; H296-H271 coated at 5 ug/mL; HRP-labeled FNH3-8, ABTS; blank subtracted
H296-H296-HT [9] = assay: ELISA; H296-H296-HT coated at 5 ug/mL; HRP-labeled FNH3-8, ABTS; blank subtracted
H296-H296-H296-HT = assay: ELISA; H296-H296-H296-HT coated at 4 ug/mL; HRP-labeled FNH3-8, ABTS; blank subtracted
[10] = molecular target: H-296, a polypeptide comprising a heparin binding domain and a CS-1 domain of fibronectin (Homo sapiens (Human)) (UniProt P02751); assay: ELISA as in Example 34; H-296 coated at 200 ug/mL in pH 5.6 acetate buffer; HRP-labeled FNH3-8
[11] = molecular target: H-296, a polypeptide comprising a heparin binding domain and a CS-1 domain of fibronectin (Homo sapiens (Human)) (UniProt P02751); assay: ELISA; H-296 coated at 25 ug/mL in 0.2 M acetate buffer pH 5.0; HRP-labeled FNH3-8, ABTS
H296-H296-HT [12] = assay: ELISA; H296-H296-HT coated at 3 ug/mL; HRP-labeled FNH3-8, ABTS; blank subtracted
[13] = molecular target: CH-296, a polypeptide comprising a cell binding domain, a heparin binding domain and a CS-1 domain of fibronectin (Homo sapiens (Human)) (UniProt P02751); assay: ELISA; CH-296 coated at 25 ug/mL; HRP-labeled FNH3-8, ABTS; blank subtracted
H296-H296-HT [14] = assay: ELISA; H296-H296-HT coated at 10 ug/mL; HRP-labeled FNH3-8, ABTS; blank subtracted
[15] = molecular target: H-296, a polypeptide comprising a heparin binding domain and a CS-1 domain of fibronectin (Homo sapiens (Human)) (UniProt P02751); assay: ELISA as in Example 34; H-296 coated at 6.25 ug/mL in pH 5.6 acetate buffer; HRP-labeled FNH3-8
[16] = molecular target: H-296, a polypeptide comprising a heparin binding domain and a CS-1 domain of fibronectin (Homo sapiens (Human)) (UniProt P02751); assay: ELISA; H-296 coated at 25 ug/mL in 0.2 M acetate buffer pH 5.6; HRP-labeled FNH3-8, ABTS
[17] = molecular target: H-296, a polypeptide comprising a heparin binding domain and a CS-1 domain of fibronectin (Homo sapiens (Human)) (UniProt P02751); assay: ELISA; H-296 coated at 50 ug/mL in 0.2 M phosphate buffer pH 6.8; HRP-labeled FNH3-8, ABTS
[18] = molecular target: H-296, a polypeptide comprising a heparin binding domain and a CS-1 domain of fibronectin (Homo sapiens (Human)) (UniProt P02751); assay: ELISA; H-296 coated at 50 ug/mL in 0.2 M phosphate buffer pH 6.2; HRP-labeled FNH3-8, ABTS
[19] = molecular target: H-296, a polypeptide comprising a heparin binding domain and a CS-1 domain of fibronectin (Homo sapiens (Human)) (UniProt P02751); assay: ELISA; H-296 coated at 25 ug/mL in 0.2 M phosphate buffer pH 6.8; HRP-labeled FNH3-8, ABTS
[20] = molecular target: H-296, a polypeptide comprising a heparin binding domain and a CS-1 domain of fibronectin (Homo sapiens (Human)) (UniProt P02751); assay: ELISA as in Example 34; H-296 coated at 12.5 ug/mL in pH 5.6 acetate buffer; HRP-labeled FNH3-8
H296-H271 [21] = assay: ELISA; H296-H271 coated at 11 ug/mL; HRP-labeled FNH3-8, ABTS; blank subtracted
[22] = molecular target: H296-H296 (modified fibronectin fragment in which two H-296's are connected); assay: ELISA as in Example 34; H296-H296 coated at 12.5 ug/mL in PBS; HRP-labeled FNH3-8
H271-H296 = assay: ELISA; H271-H296 coated at 10 ug/mL; HRP-labeled FNH3-8, ABTS; blank subtracted
H296-H296-HT [23] = assay: ELISA; H296-H296-HT coated at 2 ug/mL; HRP-labeled FNH3-8, ABTS; blank subtracted
H296-H271 [24] = assay: ELISA; H296-H271 coated at 15 ug/mL; HRP-labeled FNH3-8, ABTS; blank subtracted

H296-H271, sequence (chain, as listed by the source limits assumed): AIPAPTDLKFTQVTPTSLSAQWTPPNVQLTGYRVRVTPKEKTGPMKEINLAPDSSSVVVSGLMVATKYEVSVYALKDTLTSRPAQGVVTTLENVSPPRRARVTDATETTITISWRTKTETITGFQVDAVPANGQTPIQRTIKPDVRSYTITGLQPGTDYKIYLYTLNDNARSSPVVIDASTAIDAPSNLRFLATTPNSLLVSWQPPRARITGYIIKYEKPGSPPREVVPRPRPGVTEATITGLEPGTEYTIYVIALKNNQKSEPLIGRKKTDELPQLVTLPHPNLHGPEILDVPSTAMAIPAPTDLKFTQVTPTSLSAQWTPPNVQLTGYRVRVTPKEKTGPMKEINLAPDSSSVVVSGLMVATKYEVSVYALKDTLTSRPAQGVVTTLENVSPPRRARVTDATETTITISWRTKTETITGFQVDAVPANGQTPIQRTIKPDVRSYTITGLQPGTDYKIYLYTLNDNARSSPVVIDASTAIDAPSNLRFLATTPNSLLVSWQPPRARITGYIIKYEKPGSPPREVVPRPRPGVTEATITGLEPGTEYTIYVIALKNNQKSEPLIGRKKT
H296-H296-HT, sequence (chain, as listed by the source limits assumed): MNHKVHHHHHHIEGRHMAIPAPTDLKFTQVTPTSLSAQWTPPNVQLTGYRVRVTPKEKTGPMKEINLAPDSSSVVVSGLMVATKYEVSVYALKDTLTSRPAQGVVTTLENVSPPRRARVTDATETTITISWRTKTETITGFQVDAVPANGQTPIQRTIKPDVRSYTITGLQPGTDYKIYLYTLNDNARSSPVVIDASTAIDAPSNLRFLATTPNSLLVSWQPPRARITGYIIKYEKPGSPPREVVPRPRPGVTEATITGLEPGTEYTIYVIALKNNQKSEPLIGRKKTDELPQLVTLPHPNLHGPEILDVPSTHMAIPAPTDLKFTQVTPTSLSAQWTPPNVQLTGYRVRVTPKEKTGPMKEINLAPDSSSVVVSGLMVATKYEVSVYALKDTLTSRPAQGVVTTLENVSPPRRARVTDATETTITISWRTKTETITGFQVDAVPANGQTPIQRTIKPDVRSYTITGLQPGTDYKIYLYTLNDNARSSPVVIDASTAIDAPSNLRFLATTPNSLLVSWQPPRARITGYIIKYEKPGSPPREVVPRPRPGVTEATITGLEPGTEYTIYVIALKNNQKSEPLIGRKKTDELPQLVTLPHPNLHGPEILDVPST
H296-H296-H296-HT, sequence (chain, as listed by the source limits assumed): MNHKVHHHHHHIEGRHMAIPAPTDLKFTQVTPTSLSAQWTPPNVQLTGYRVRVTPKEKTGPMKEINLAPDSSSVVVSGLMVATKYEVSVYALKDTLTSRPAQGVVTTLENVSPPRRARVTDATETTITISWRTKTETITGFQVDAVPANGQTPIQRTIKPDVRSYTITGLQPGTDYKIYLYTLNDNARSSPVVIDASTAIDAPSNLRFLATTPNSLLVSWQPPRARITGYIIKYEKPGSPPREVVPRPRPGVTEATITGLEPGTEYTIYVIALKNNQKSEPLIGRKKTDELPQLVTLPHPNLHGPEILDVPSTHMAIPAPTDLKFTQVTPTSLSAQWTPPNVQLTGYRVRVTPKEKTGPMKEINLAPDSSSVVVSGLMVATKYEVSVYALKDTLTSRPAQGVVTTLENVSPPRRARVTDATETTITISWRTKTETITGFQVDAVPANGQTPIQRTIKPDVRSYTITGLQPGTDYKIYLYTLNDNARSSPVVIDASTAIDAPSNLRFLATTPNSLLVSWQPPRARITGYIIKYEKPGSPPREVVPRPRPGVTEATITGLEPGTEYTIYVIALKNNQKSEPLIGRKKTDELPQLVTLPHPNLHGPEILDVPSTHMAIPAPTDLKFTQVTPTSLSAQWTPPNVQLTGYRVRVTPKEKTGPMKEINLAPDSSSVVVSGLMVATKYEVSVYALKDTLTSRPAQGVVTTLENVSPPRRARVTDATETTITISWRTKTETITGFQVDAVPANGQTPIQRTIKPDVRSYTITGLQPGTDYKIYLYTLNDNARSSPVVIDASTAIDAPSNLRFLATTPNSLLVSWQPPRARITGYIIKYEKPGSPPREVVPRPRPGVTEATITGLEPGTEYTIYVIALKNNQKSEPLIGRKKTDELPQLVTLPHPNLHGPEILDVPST
H271-H296, sequence (chain, as listed by the source limits assumed): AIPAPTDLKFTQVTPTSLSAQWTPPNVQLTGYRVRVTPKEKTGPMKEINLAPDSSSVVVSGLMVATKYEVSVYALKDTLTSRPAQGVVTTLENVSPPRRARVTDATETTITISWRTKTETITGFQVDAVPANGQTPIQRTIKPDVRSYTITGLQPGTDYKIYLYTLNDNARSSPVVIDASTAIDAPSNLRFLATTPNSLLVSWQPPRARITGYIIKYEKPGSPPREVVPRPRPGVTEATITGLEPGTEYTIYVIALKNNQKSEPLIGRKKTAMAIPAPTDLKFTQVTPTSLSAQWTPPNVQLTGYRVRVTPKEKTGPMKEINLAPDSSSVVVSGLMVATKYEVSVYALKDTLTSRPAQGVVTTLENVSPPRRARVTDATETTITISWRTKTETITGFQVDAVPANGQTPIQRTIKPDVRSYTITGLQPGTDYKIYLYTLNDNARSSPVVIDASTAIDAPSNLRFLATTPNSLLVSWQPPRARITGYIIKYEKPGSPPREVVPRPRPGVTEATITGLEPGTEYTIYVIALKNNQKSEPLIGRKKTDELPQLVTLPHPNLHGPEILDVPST

absorbance at 405 nm [1]: 0.732
absorbance at 405 nm [2]: 0.174
absorbance at 405 nm [3]: 0.304
405 nm (Found Value - Blank) (H296-H296-HT [4]): 0.843
absorbance at 405 nm [5]: 1.29
absorbance at 405 nm [6]: 0.499
absorbance at 405 nm [7]: 0.567
405 nm (Found Value - Blank) (H296-H271 [8]): 0.448
405 nm (Found Value - Blank) (H296-H296-HT [9]): 0.878
405 nm (Found Value - Blank) (H296-H296-H296-HT): 0.81
absorbance at 405 nm [10]: 0.964
absorbance at 405 nm [11]: 0.392
405 nm (Found Value - Blank) (H296-H296-HT [12]): 0.742
405 nm (Found Value - Blank) [13]: 0.564
405 nm (Found Value - Blank) (H296-H296-HT [14]): 0.976
absorbance at 405 nm [15]: 0.221
absorbance at 405 nm [16]: 0.475
absorbance at 405 nm [17]: 0.167
absorbance at 405 nm [18]: 0.244
absorbance at 405 nm [19]: 0.075
absorbance at 405 nm [20]: 0.277
405 nm (Found Value - Blank) (H296-H271 [21]): 0.561
absorbance at 405 nm [22]: 1.73
405 nm (Found Value - Blank) (H271-H296): 0.6
405 nm (Found Value - Blank) (H296-H296-HT [23]): 0.54
405 nm (Found Value - Blank) (H296-H271 [24]): 0.635
Substance: FNH3-8 antibody (manufactured by TAKARA BIO INC.) labeled with HRP
